Assay results taken from US20240262894A1.
pKd: −log10 of the molar value.

Key:
[1] = target: F protein of RSV B-type clinical isolates (on virus) (respiratory syncytial virus B-type clinical isolates); experiment: cell-based or functional assay
[2] = target: pre-fusion F protein DS-Cav1 of RSV A2 strain (respiratory syncytial virus A2 strain); experiment: SPR (Biacore), F protein immobilised on CM5 chip, Fab as analyte
[3] = target: post-fusion F protein (FΔFP) of RSV A2 strain (respiratory syncytial virus A2 strain) (UniProt P03420); experiment: as above

**Q.** How did the IC50 (ng/mL), neutralization of RSV B-type clinical isolates on Hep2 cells, flow cytometry [1] turn out when Palivizumab (antibody) was run?
**A.** 1410 ng/mL

**Q.** Which results are given for Palivizumab Fab?
**A.** pKd [2]: 7.94; pKd [3]: 8.36
